Experimental data from patent publication US20250340602A1.

Target: Gal80p (Saccharomyces cerevisiae) (UniProt P04387)
Assay: cell-based or functional assay

Sequence of UniProt P04387 (P04387 whole entry): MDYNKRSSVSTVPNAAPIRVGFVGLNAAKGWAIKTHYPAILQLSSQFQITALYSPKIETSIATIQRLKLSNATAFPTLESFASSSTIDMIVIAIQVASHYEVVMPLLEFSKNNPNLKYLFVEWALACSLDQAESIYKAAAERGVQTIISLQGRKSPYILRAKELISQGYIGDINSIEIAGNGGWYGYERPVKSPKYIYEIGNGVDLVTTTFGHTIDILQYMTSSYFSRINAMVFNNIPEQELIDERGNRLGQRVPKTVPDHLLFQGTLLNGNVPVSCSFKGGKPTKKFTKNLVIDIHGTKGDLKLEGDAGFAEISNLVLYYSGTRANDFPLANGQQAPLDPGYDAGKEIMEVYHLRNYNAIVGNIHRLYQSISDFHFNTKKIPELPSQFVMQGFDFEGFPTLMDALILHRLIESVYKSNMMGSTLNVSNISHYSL

GAL1p-EGFP fluorescence during growth on galactose in strain SFS6: > 5 fold
Substance: Gal3p^MC (metabolic coordinator) (from UniProt P13045 1-520)
